Source: IntAct's records for PubMed 16477026

B1: Effector protein HopAB2 (Pseudomonas syringae pv. tomato (strain DC3000)), Q8RSY1 (parent)
chain: MAGINRAGPSGAYFVGHTDPEPVSGQAHGSGSGASSSNSPQVQPRPSNTPPSNAPAPPPTGRERLSRSTALSRQTREWLEQGMPTAEDASVRRRPQVTADAATPRAEARRTPEATADASAPRRGAVAHANSIVQQLVSEGADISHTRNMLRNAMNGDAVAFSRVEQNIFRQHFPNMPMHGISRDSELAIELRGALRRAVHQQAASAPVRSPTPTPASPAASSSGSSQRSLFGRFARLMAPNQGRSSNTAASQTPVDRSPPRVNQRPIRVDRAAMRNRGNDEADAALRGLVQQGVNLEHLRTALERHVMQRLPIPLDIGSALQNVGINPSIDLGESLVQHPLLNLNVALNRMLGLRPSAERAPRPAVPVAPATASRRPDGTRATRLRVMPEREDYENNVAYGVRLLNLNPGVGVRQAVAAFVTDRAERPAVVANIRAALDPIASQFSQLRTISKADAESEELGFKDAADHHTDDVTHCLFGGELSLSNPDQQVIGLAGNPTDTSQPYSQEGNKDLAFMDMKKLAQFLAGKPEHPMTRETLNAENIAKYAFRIVP

Variants of: B1
Details: with rs27a_sollc UBI3, P62980

Variant	effect of a mutation on the interaction
K512R;K529R	decreasing interaction strength
